Substitutions are numbered along the chain they refer to. One block for each binder: values may come before it.
Experiments:
[1] = molecular target: T1, recombinant hSIRPg-His (Sino Biologicals, reference 11828-H08H) (human, UniProt Q9P1W8 29-360); experiment: BLI (Blitz); SIRPg-His on Ni-NTA biosensor, antibody at 10 ug/ml or 20 ug/ml (Example 9) [B, table A]
T1 construct: also called human SIRPg-His; not shown: His tag
Protocol: (§1) FIG. 8. (A) Affinity analysis by Blitz of anti-SIRP antibodies on human SIRPg recombinant protein. SIRPg-His recombinant protein was immobilized onto a NINTA biosensor and the indicated antibodies were added at 10 μg/ml. […] (B) Binding analysis by ELISA assay of anti-SIRP antibodies on SIRPg (human SIRPg-His coating and anti-human kappa detection).
(§2) Method: This method was performed with a Blitz (Forte Bio; USA; reference C22-2 No 61010-1). Recombinant hSIRPg-His (Sino Biologicals, Beijing, China; reference 11828-H08H) was immobilized at 10 μg/ml by histidine tail into a Ni-NTA biosensor (Forte Bio; USA; reference 18-0029) for 30 seconds. Then, an anti-SIRPa antibody was associated at 20 μg/mL for 120 seconds. The dissociation of anti-SIRPa antibody was made in kinetics buffer for 120 seconds. Analysis of data was made with the Blitz pro 1.2 software, which calculated association constant (ka) and dissociation constant (kd) and determined the affinity constant KD […].

[2] = molecular target: T2, recombinant hSIRPa (Sino Biologicals, reference 11612-H08H) (human, UniProt P78324 31-370); experiment: ELISA on immobilized hSIRPa-His, anti-human IgG detection, second experiment
T2 construct: also called SIRPa-His; human SIRPa-His; not shown: His tag (histidine tail)
T2 sequence (P78324 31-370 limits assumed): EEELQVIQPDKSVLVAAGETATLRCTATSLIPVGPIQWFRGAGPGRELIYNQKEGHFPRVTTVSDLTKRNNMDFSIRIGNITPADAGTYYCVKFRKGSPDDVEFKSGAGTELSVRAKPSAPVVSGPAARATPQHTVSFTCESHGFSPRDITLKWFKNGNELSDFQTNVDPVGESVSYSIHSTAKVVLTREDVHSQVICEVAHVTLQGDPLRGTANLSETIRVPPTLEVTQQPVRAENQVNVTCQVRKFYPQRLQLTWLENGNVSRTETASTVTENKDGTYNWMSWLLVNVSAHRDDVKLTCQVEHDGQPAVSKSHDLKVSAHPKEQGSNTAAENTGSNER
Protocol: (§3) Method: The binding activity of the anti-SIRPa antibodies was assessed by ELISA.

[3] = molecular target: T2, recombinant hSIRPa (Sino Biologicals, …); experiment: SPR (Biacore); SIRPa-His immobilized on CM5 chip, antibody injected
Protocol: FIG. 2. Affinity analysis by Biacore of anti-SIRP antibodies on human SIRPa recombinant protein. SIRPa-His recombinant protein was immobilized onto a CM5 chip at 5 μg/ml (500 RU) and the indicated antibodies were added at different concentration.
Method: Recombinant hSIRPa (Sino Biologicals, Beijing, China; reference 11612-H08H) was immobilized into a CM5 sensor chip (GeHealthcare; France) at 5 μg/ml (500 RU) and antibodies were applied at different concentrations with a flow rate of 40 μl/min. Analysis was performed with a BIAcore 3000 (Biacore, GeHealthcare).

[4] = molecular target: T3, recombinant hSIRPb-His (Antibodies-online, reference ABIN3077231) (human, UniProt Q5TFQ8 30-371); experiment: BLI (Blitz); SIRPb-His on Ni-NTA biosensor, antibody at 20 ug/ml [B, table A]
T3 construct: also called SIRPb-His (Blitz); not shown: His tag
T3 sequence (Q5TFQ8 30-371): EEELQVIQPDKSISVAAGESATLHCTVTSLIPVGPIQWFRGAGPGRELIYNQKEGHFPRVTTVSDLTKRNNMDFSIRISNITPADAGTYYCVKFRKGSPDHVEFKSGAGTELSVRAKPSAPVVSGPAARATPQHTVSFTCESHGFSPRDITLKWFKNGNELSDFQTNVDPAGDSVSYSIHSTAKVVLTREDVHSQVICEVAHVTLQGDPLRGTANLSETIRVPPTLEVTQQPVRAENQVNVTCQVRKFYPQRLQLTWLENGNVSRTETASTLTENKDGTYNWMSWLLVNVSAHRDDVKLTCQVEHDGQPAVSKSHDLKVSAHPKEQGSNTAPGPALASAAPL
Protocol: as §1, with “7.” for “8.”, “SIRPb” for “SIRPg”, “SIRPb-His” for “SIRPg-His”, “20” for “10”, “analysis” for “analysis by ELISA assay”, “antibodies” for “antibodies on SIRPg”
as §2, with “hSIRPb-His (Antibodies-online; USA;” for “hSIRPg-His (Sino Biologicals, Beijing, China;”, “ABIN3077231)” for “11828-H08H)”

[5] = molecular target: T2, recombinant hSIRPa (Sino Biologicals, …); experiment: competition ELISA on immobilized SIRPa-His; competitor biotinylated CD47-Fc at 6 ug/ml, streptavidin-peroxidase [second experiment table]
Protocol: Method: For competitive ELISA assay, recombinant hSIRPa (Sino Biologicals, Beijing, China; reference 11612-H08H) was immobilized on plastic at 0.5 μg/ml in carbonate buffer (pH9.2).

[6] = molecular target: T2, recombinant hSIRPa (Sino Biologicals, …); experiment: ELISA on immobilized hSIRPa-His, anti-human IgG detection, first experiment; first experiment
Protocol: as §3

[7] = molecular target: T2, recombinant hSIRPa (Sino Biologicals, …); experiment: ELISA on immobilized hSIRPa-His, anti-human IgG detection, third experiment
Protocol: as §3

OX40Fc = molecular target: T4, OX40Fc (human, UniProt P43489 29-216); experiment: ELISA: modified antibody (concentration on the axis) captured on SIRPa-His, then OX40Fc, detected with mouse anti-human OX40 [panel OX40L]
T4 construct: not shown: Fc; not specified
T4 sequence (looked up): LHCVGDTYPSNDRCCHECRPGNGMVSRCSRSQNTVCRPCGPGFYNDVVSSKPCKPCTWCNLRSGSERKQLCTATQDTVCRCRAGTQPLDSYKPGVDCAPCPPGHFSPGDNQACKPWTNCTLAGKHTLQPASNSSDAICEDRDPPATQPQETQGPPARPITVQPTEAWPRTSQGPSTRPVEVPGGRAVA
Text: FIG. 24. Ligand binding assay with the different modified anti-SIRPa antibodies by ELISA.

[8] = molecular target: T2, recombinant hSIRPa (Sino Biologicals, …); experiment: ELISA on immobilized SIRPa-His, peroxidase anti-human IgG, DO 450nm [panel OX40L]
Protocol: (§4) Method: For ELISA assay, recombinant hSIRPa (Sino Biologicals, Beijing, China; reference 11612-H08H) was immobilized on plastic at 0.5 μg/ml in carbonate buffer (pH9.2) and different modified anti-SIRPa antibodies were added to measure binding to SIRPa.

[9] = molecular target: T2, recombinant hSIRPa (Sino Biologicals, …); experiment: ELISA on immobilized SIRPa-His, peroxidase anti-human IgG, DO 450nm [panel CD80]
Protocol: as §4

CTLA4-Fc = molecular target: T5, CTLA4-Fc (human, UniProt P16410 36-161, limits assumed); experiment: ELISA: modified antibody (concentration on the axis) captured on SIRPa-His, then CTLA4-Fc, detected with mouse anti-human CTLA4 [panel CD80]
T5 construct: not shown: Fc; not specified
T5 sequence (P16410 36-161 limits assumed): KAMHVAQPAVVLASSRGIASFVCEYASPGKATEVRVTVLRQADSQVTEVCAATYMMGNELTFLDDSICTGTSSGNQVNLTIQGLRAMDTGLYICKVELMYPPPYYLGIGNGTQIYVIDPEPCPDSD

T1 sequence (Q9P1W8 29-360 limits assumed): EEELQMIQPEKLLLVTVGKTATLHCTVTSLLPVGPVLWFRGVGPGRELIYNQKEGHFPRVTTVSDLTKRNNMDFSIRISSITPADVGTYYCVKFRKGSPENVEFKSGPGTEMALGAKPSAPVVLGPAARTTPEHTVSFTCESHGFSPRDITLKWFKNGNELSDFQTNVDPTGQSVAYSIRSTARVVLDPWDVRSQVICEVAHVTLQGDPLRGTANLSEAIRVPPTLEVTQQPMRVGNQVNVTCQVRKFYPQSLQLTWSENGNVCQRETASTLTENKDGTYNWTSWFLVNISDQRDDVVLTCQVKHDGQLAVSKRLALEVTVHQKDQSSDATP

B1: HFLA (antibody, human IgG4 S228P, kappa, V domains shown)
VH: EVQLVQSGAEVKKPGESLRISCKASGYSFTSYWVHWVRQMPGKGLEWMGNIDPSDSDTHYSPSFQGHVTLSVDKSISTAYLQLSSLKASDTAMYYCVRGGTGTMAYFAYWGQGTLVTVSS
VL: DVVMTQSPLSLPVTLGQPASISCRSSQSLVHSYGNTYLYWYQQRPGQSPRLLIYRVSNRFSGVPDRFSGSGSGTDFTLKISRVEAEDVGVYFCFQGTHVPYTFGGGTKVEIKR
notes: humanized 18D5 variant
- Kd [1]: 47.6 nM
- koff [1]: 0.0118 s⁻¹
- kon [1]: 248000 M⁻¹ s⁻¹
- EC50 [2]: 4.61 ng/mL
- Kd [3]: 0.217 nM
- koff [3]: 0.000186 s⁻¹
- kon [3]: 857000 M⁻¹ s⁻¹
- Kd [4]: 25.8 nM
- koff [4]: 0.00192 s⁻¹
- kon [4]: 74500 M⁻¹ s⁻¹
- IC50 [5]: 146 ng/mL
- EC50 [6]: 5.1 ng/mL

B2: HCLB (antibody, human IgG4 S228P, kappa, V domains shown)
VH: B1 VH with Y106W
VL: B1 VL with Y41F, F92Y
notes: humanized 18D5 variant; also called humanized 18D5 variant HCLB
- EC50 [2]: 5.59 ng/mL

B3: HEFLA (antibody, human IgG4 S228P, kappa, V domains shown)
VH: B1 VH with M104L
VL: B1 VL
notes: humanized 18D5 variant
- Kd [1]: 52.4 nM
- koff [1]: 0.0114 s⁻¹
- kon [1]: 217000 M⁻¹ s⁻¹
- Kd [3]: 0.264 nM
- koff [3]: 0.000148 s⁻¹
- kon [3]: 559000 M⁻¹ s⁻¹
- Kd [4]: 12.4 nM
- koff [4]: 0.00122 s⁻¹
- kon [4]: 98300 M⁻¹ s⁻¹
- IC50 [5]: 191 ng/mL
- EC50 [6]: 7.1 ng/mL

B6: HALA (antibody, human IgG4 S228P, kappa, V domains shown)
VH: B1 VH with S28T, M48I, S61N, P62Q, S63K, Q65K, G66D, Y106W
VL: B1 VL
notes: humanized 18D5 variant; also called humanized 18D5 variant HALA
- Kd [1]: 46.1 nM
- koff [1]: 0.00709 s⁻¹
- kon [1]: 154000 M⁻¹ s⁻¹
- Kd [4]: 6.4 nM
- koff [4]: 0.00085 s⁻¹
- kon [4]: 133000 M⁻¹ s⁻¹
- EC50 [6]: 3.9 ng/mL

B8: HBLA (antibody, human IgG4 S228P, kappa, V domains shown)
VH: B1 VH with S61N, P62Q, S63K, Q65K, G66D, Y106W
VL: B1 VL
notes: humanized 18D5 variant; also called humanized 18D5 variant HBLA
- EC50 [7]: 2.68 ng/mL

B9: modified anti-SIRPa HEFLB antibody with ECD of OX40L on the light chain (antibody, human IgG4 S228P, kappa)
heavy: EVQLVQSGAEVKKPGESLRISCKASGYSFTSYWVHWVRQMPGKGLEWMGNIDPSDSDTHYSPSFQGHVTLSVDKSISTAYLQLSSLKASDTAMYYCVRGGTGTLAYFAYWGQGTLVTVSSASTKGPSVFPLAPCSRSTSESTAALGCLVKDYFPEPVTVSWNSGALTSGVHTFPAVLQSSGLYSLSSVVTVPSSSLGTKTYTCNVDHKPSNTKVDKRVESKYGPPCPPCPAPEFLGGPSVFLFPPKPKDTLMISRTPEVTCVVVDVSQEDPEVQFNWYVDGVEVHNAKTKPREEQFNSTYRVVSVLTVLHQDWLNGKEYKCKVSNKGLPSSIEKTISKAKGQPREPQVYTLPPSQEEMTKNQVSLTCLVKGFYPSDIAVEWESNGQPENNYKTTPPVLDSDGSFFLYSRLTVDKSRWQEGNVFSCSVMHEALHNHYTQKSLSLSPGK
light: DVVMTQSPLSLPVTLGQPASISCRSSQSLVHSYGNTYLYWFQQRPGQSPRLLIYRVSNRFSGVPDRFSGSGSGTDFTLKISRVEAEDVGVYYCFQGTHVPYTFGGGTKVEIKRTVAAPSVFIFPPSDEQLKSGTASVVCLLNNFYPREAKVQWKVDNALQSGNSQESVTEQDSKDSTYSLSSTLTLSKADYEKHKVYACEVTHQGLSSPVTKSFNRGECGGGGSGGGGSGGGGSQVSHRYPRIQSIKVQFTEYKKEKGFILTSQKEDEIMKVQNNSVIINCDGFYLISLKGYFSQEVNISLHYQKDEEPLFQLKKVRSVNSLMVASLTYKDKVYLNVTTDNTSLDDFHVNGGELILIHQNPGEFCVL
notes: as m32, ECD of OX40L; also called VH+VLprot (OX40L); HEF + LB-OX40L
- binding result (OX40Fc): binds
- binding result [8]: binds

B11: modified anti-SIRPa HEFLB antibody with ECD of OX40L on the heavy chain (antibody, human IgG4 S228P, kappa)
heavy: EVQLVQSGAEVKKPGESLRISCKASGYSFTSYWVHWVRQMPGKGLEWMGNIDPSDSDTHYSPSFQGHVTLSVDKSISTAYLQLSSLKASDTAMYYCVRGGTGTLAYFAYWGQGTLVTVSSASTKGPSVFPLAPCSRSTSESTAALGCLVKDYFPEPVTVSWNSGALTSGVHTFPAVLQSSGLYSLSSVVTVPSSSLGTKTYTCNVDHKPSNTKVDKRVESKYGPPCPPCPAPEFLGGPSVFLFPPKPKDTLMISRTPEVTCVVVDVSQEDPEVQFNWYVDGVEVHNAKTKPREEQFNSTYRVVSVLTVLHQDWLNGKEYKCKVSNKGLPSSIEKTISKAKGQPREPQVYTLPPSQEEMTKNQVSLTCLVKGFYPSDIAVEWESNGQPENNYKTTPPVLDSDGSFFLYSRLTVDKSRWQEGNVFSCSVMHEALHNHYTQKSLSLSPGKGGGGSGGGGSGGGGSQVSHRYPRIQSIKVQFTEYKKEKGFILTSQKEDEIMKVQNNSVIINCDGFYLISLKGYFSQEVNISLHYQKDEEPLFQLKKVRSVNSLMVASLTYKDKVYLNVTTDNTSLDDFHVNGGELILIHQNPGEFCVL
light: DVVMTQSPLSLPVTLGQPASISCRSSQSLVHSYGNTYLYWFQQRPGQSPRLLIYRVSNRFSGVPDRFSGSGSGTDFTLKISRVEAEDVGVYYCFQGTHVPYTFGGGTKVEIKRTVAAPSVFIFPPSDEQLKSGTASVVCLLNNFYPREAKVQWKVDNALQSGNSQESVTEQDSKDSTYSLSSTLTLSKADYEKHKVYACEVTHQGLSSPVTKSFNRGEC
notes: as m25, ECD of OX40L; also called VHprot+VL (OX40L); HEF-OX40L + LB
- binding result (OX40Fc): binds
- binding result [8]: binds

Other lines, results leading:

- EC50 [7]: 2.95 ng/mL
B4: HBLB (antibody, human IgG4 S228P, kappa, V domains shown)
VH: B1 VH with S61N, P62Q, S63K, Q65K, G66D, Y106W
VL: B1 VL with Y41F, F92Y
notes: humanized 18D5 variant; also called humanized 18D5 variant HBLB

- EC50 [2]: 4.13 ng/mL
B5: HELB (antibody, human IgG4 S228P, kappa, V domains shown)
VH: B1 VH with M104L, Y106W
VL: B1 VL with Y41F, F92Y
notes: humanized 18D5 variant; also called humanized 18D5 variant HELB

- EC50 [7]: 2.53 ng/mL
B7: HALB (antibody, human IgG4 S228P, kappa, V domains shown)
VH: B1 VH with S28T, M48I, S61N, P62Q, S63K, Q65K, G66D, Y106W
VL: B1 VL with Y41F, F92Y
notes: humanized 18D5 variant; also called humanized 18D5 variant HALB

- EC50 (read off the curve) [9]: ~8 ng/mL
- binding result (CTLA4-Fc): binds
B10: modified anti-SIRPa HEFLB antibody with ECD of CD80 on the heavy chain (antibody, human IgG4 S228P, kappa)
heavy: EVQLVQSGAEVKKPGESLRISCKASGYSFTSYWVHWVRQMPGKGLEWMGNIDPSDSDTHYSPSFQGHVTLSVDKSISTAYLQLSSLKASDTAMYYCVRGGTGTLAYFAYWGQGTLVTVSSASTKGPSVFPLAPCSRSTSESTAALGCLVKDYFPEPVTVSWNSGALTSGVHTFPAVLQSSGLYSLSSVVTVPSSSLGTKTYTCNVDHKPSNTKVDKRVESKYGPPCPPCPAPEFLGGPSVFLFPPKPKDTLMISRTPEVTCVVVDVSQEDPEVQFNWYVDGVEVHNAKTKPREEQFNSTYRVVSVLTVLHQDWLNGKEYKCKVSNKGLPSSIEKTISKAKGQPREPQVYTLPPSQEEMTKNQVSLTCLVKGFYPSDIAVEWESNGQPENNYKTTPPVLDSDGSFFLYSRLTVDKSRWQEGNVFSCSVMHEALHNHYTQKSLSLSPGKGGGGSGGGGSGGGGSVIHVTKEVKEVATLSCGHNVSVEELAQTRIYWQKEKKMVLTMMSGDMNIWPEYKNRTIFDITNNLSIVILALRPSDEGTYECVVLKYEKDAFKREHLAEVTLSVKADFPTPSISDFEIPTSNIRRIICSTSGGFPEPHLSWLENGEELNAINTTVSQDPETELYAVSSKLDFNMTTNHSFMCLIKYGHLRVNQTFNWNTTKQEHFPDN
light: B11 light
notes: as m25, ECD of CD80; also called VHprot+VL (CD80); VH-CD80

- EC50 (read off the curve) [9]: ~8 ng/mL
- binding result (CTLA4-Fc): binds
B12: modified anti-SIRPa HEFLB antibody with ECD of CD80 on the light chain (antibody, human IgG4 S228P, kappa)
heavy: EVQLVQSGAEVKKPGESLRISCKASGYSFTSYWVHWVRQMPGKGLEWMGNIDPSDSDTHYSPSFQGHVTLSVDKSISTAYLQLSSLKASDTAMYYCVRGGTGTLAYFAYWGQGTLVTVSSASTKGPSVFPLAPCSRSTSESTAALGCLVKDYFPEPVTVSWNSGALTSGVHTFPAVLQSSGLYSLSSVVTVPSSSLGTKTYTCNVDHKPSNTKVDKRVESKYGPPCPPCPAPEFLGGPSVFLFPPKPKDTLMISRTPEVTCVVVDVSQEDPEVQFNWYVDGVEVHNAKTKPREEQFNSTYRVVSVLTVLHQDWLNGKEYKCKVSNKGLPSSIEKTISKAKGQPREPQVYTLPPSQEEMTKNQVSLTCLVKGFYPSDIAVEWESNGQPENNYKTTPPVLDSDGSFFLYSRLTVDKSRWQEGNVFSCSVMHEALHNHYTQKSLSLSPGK
light: DVVMTQSPLSLPVTLGQPASISCRSSQSLVHSYGNTYLYWFQQRPGQSPRLLIYRVSNRFSGVPDRFSGSGSGTDFTLKISRVEAEDVGVYYCFQGTHVPYTFGGGTKVEIKRTVAAPSVFIFPPSDEQLKSGTASVVCLLNNFYPREAKVQWKVDNALQSGNSQESVTEQDSKDSTYSLSSTLTLSKADYEKHKVYACEVTHQGLSSPVTKSFNRGECGGGGSGGGGSGGGGSVIHVTKEVKEVATLSCGHNVSVEELAQTRIYWQKEKKMVLTMMSGDMNIWPEYKNRTIFDITNNLSIVILALRPSDEGTYECVVLKYEKDAFKREHLAEVTLSVKADFPTPSISDFEIPTSNIRRIICSTSGGFPEPHLSWLENGEELNAINTTVSQDPETELYAVSSKLDFNMTTNHSFMCLIKYGHLRVNQTFNWNTTKQEHFPDN
notes: as m32, ECD of CD80; also called VH+VLprot (CD80); HEF + LB-CD80
